B1: SEQ ID NO: 598: four-hairpin amiRNA, guides SEQ ID NOs 95, 97, 96, 98 to Cricetulus griseus interferon receptor subunit 1 mRNA (nucleic acid)
chain: ATCTGATCTTCTGAAGAAAATATATTTCTTTTTATTCATAGCTCTTAACTAGTGGTGATAGCAATGTCAGCAGTGCCTTAAAATAACACACAAGAGCCATGTGAAGCCACAGATGATGGCTCTTGCGTGTTATTTTCAAGTAAGGTTGACCATACTCTACTCTAGTTATATTCTTTAGGCACGAATGTGTGTTTAAAAAAAATAAAAACTAGTGGTGATAGCAATGTCAGCAGTGCCTTTAAACAGTAAGTAGTCTCTGGGTGAAGCCACAGATGCCAGAGACTAATTACTGTTTACAAGTAAGGTTGACCATACTCTACTCTAGAGTTGTGTTTTAATGTATATTAATGTTACTAATGTGTTTACTAGTGGTGATAGCAATGTCAGCAGTGCCTTTGGGTGTTAATAAAAAGGCAGGTGAAGCCACAGATGCTGCCTTTTTCTTAACACCCACAAGTAAGGTTGACCATACTCTACTCTAGGTTATTTTTAGTATGATTCTGTAAAAATGAATTAATACTAACTAGTGGTGATAGCAATGTCAGCAGTGCCTTTCATTTTGACATACATACTTGGTGAAGCCACAGATGCAAGTATGTACGTCAAAATGACAAGTAAGGTTGACCATACTCTACTCTAGTCAGTTTTATTGATAGTCTTTTCAGTATTATTGATAATCTT
B2: SEQ ID NO: 599: four-hairpin amiRNA, guides SEQ ID NOs 103, 104, 102, 105 to Cricetulus griseus interferon receptor subunit 2 mRNA (nucleic acid)
chain: ATCTGATCTTCTGAAGAAAATATATTTCTTTTTATTCATAGCTCTTAACTAGTGGTGATAGCAATGTCAGCAGTGCCTAAGACTATCAGCAAGAACCAGGGTGAAGCCACAGATGCCTGGTTCTTACTGATAGTCTCAAGTAAGGTTGACCATACTCTACTCTAGTTATATTCTTTAGGCACGAATGTGTGTTTAAAAAAAATAAAAACTAGTGGTGATAGCAATGTCAGCAGTGCCTTTGAAGATAACTTTGTCCCCGGGTGAAGCCACAGATGCCGGGGACAACGTTATCTTCACAAGTAAGGTTGACCATACTCTACTCTAGAGTTGTGTTTTAATGTATATTAATGTTACTAATGTGTTTACTAGTGGTGATAGCAATGTCAGCAGTGCCTTAAACAACAATGGATCCCCAAAGTGAAGCCACAGATGTTTGGGGATCAATTGTTGTTTCAAGTAAGGTTGACCATACTCTACTCTAGGTTATTTTTAGTATGATTCTGTAAAAATGAATTAATACTAACTAGTGGTGATAGCAATGTCAGCAGTGCCTTTGCTCATGATTGTGAACCAAAGTGAAGCCACAGATGTTTGGTTCACCATCATGAGCACAAGTAAGGTTGACCATACTCTACTCTAGTCAGTTTTATTGATAGTCTTTTCAGTATTATTGATAATCTT

Experiments:
[1] = tested on: Cricetulus griseus interferon receptor subunit 1 mRNA; test: Expression of human interferon beta from CHO cells (ELISA), amiRNA to interferon receptor subunit 1; assay type: cell-based; details: for Titer: 10-day fed batch
Description: One multi-hairpin amiRNA, with nucleotide sequence SEQ ID NO: 598, comprised four hairpins; the first hairpin comprised a guide strand with nucleotide sequence SEQ ID NO: 95, immediately followed by a loop with nucleotide sequence SEQ ID NO: 241 and passenger strand with nucleotide sequence SEQ ID NO: 180, the second hairpin comprised a guide strand with nucleotide sequence SEQ ID NO: 97, immediately followed by a loop with nucleotide sequence SEQ ID NO: 241 and passenger strand with nucleotide sequence SEQ ID NO: 182, the third hairpin comprised a guide strand with nucleotide sequence SEQ ID NO: 96, immediately followed by a loop with nucleotide sequence SEQ ID NO: 241 and a passenger strand with nucleotide sequence SEQ ID NO: 181, the fourth hairpin comprised a guide strand with nucleotide sequence SEQ ID NO: 98, immediately followed by a loop with nucleotide sequence SEQ ID NO: 241 and a passenger strand with nucleotide sequence SEQ ID NO: 183. Each of these four guide strand sequences was a 22 base sequence that was an exact reverse complement of a different region within the Cricetulus griseus interferon receptor subunit 1 mRNA (with nucleotide sequence SEQ ID NO: 19. Each passenger strand sequence was complementary to its corresponding guide strand sequence, except that the bases in the passenger strand sequences corresponding to the 5′ base of the guide strand and the twelfth base of the guide strand were changed to be non-complementary.
(§1) Each of the five polynucleotides was a transposon which further comprised a left end comprising a 5′-TTAA-3′ target sequence immediately followed by an ITR with SEQ ID NO: 423 (which is an embodiment of SEQ ID NO: 421) and additional sequence with SEQ ID NO: 417 and a right end comprising SEQ ID NO: 419 immediately followed by an ITR with SEQ ID NO: 424 (which is an embodiment of SEQ ID NO: 422) immediately followed by a 5′-TTAA-3′ target sequence. Each transposon further comprised a gene encoding a glutamine synthetase selectable marker. […] Each transposon further comprised the same promoter operably linked to an open reading frame encoding human interferon beta. […]
(§2) Transposons were co-transfected with mRNA encoding transposase with polypeptide sequence SEQ ID NO: 502 into a CHO host lacking a functional glutamine synthetase gene. […] Interferon beta levels in the culture supernatant were measured using an ELISA assay.
(§3) Table 11. […] Transposons for the expression of human interferon beta were constructed, transfected and expressed as described in Section 6.4.1. The amiRNA SEQ ID NO is shown in column A. Following a 10-day fed batch of duplicate cultures for each sample, the concentration of interferon was measured by ELISA. Measured interferon concentrations in culture supernatants are show in columns B and C. […]

[2] = tested on: Cricetulus griseus interferon receptor subunit 2 mRNA; test: Expression of human interferon beta from CHO cells (ELISA), amiRNA to interferon receptor subunit 2; assay type: cell-based; details: for Titer: 10-day fed batch
Description: One multi-hairpin amiRNA, with nucleotide sequence SEQ ID NO: 599, comprised four hairpins; the first hairpin comprised a guide strand with nucleotide sequence SEQ ID NO: 103, immediately followed by a loop with nucleotide sequence SEQ ID NO: 241 and passenger strand with nucleotide sequence SEQ ID NO: 188; the second hairpin comprised a guide strand with nucleotide sequence SEQ ID NO: 104, immediately followed by a loop with nucleotide sequence SEQ ID NO: 241 and passenger strand with nucleotide sequence SEQ ID NO: 189; the third hairpin comprised a guide strand with nucleotide sequence SEQ ID NO: 102, immediately followed by a loop with nucleotide sequence SEQ ID NO: 241 and a passenger strand with nucleotide sequence SEQ ID NO: 187; the fourth hairpin comprised a guide strand with nucleotide sequence SEQ ID NO: 105, immediately followed by a loop with nucleotide sequence SEQ ID NO: 241 and a passenger strand with nucleotide sequence SEQ ID NO: 190. Each of these four guide strand sequences was a 22 base sequence that was an exact reverse complement of a different region within the Cricetulus griseus interferon receptor subunit 2 mRNA (with nucleotide sequence SEQ ID NO: 20). Each passenger strand sequence was complementary to its corresponding guide strand sequence, except that the bases in the passenger strand sequences corresponding to the 5′ base of the guide strand and the twelfth base of the guide strand were changed to be non-complementary.
as §1, §2, §3

[3] = control transposon expressed 48 μg/ml
[4] = interferon beta in supernatant, first of duplicate cultures
[5] = interferon beta, second of duplicate cultures

Molecule	Average Titer ([1]; average of duplicate cultures)	interferon beta expression compared with the control transposon [1, 3]	Titer [1, 4]	Titer [1, 5]	Average Titer ([2]; average of duplicate cultures)	interferon beta expression compared with the control transposon [2, 3]	Titer [2, 4]	Titer [2, 5]
B1	34.5 µg/mL	a small decrease in interferon beta expression	22.8 µg/mL	46.1 µg/mL				
B2					99.3 µg/mL	as much as twice the expression levels of interferon beta as the control transposon	92.9 µg/mL	105.7 µg/mL
